Legend:
[1] = target: Acanthamoeba castellanii actin (Acanthamoeba castellanii)
[2] = target: Acanthamoeba castellanii actin (Acanthamoeba castellanii); remark: listed apart in the source

Fhod-B (C-terminal half: FH1 and FH2 domains and the Fhod-B tail) (domain or fragment)
median run length (length of dim filaments after 5 min), TIRF microscopy with profilin; said to be an underestimate [1]: 24 μm
run length, mean of three independent samples, TIRF microscopy with profilin [2]: 24.1 μm

From article PMC10797183
